Experimental data: the nanobody polyreactivity screen of Harvey et al. (2022)

Test: yeast display, Sf9 membrane polyspecificity reagent, FACS + sequencing; frameworks hold sequencing errors
Method in brief: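 Synthetic nanobody libraries on Saccharomyces cerevisiae BJ5465 were galactose-induced for 36–48 hours, stained 1 hour at 4 °C with 10% biotinylated, detergent-solubilized Sf9 membrane reagent and enriched on streptavidin microbeads. FACS then separated cells into low and high (top ~1%) gates by anti-HA (expression) and streptavidin (reagent binding) fluorescence. Genes were colony-PCR amplified, MiSeq 2 × 250 sequenced and CDR-length filtered. A clone's polyreactivity label is that of its gate of origin.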
With “QVQLVESGGGLVQAGGSLRLSCAASGSIFIYYAIGWYRKAPGKERELVAAIDRSGGNTYYADSVKGRFTISRDNAKNTVYLQMNSLKPEDTAVYYCAALVHRRVQYDYWGQGTQVTVSS” the “polyreactivity (PSR sort gate)” value was “high polyreactivity”. For “QVQLVESGGGLVQAGGSLRLSCAASGSIFIYYAMGWYRQAPGKEMELVAAISSSGGSTYYADSVKGRFTISRDNAKNTVYLQMNSLKPEDTAVYYCAAAYGGRLRYTAGYYWGQGTQVTVSS”, the “polyreactivity (PSR sort gate)” value was “high polyreactivity”. In the case of “QVQLVESGGGLVQAGGSLRLSCAASGSIFIYYAMGWYRQAPGKERELVAAIDYSGDSTYYADSVKGRFTISRDNAKNTVYLQMNSLKPEDTAVYYCAVYYAGWGDYWGQGTQVTVSS”, the “polyreactivity (PSR sort gate)” value is reported as “low polyreactivity”. With “QVQLVESGGGLVQAGGSLRLSCAASGSIFIYYAMGWYRQAPGKERELVAAISWSGGDTYYADSVKGRFTISRDNAKNTVYFHMNILKPEDTAVYYCNADYYPYYPYTAWDTVLTHDEYWGQGTQVTVSS” the “polyreactivity (PSR sort gate)” value was “low polyreactivity”. In the case of “QVQLVESGGGLVQAGGSLRLSCAASGSIFIYYAMGWYRQAPGKERELVAAISWSGGDTYYADSVKGRFTISRDNAKNTVYLQMNSLKPEDTAVYYCNADYDPYYPYTAWDTVLTHDEYWGQGTQVTVSS”, the “polyreactivity (PSR sort gate)” value is reported as “low polyreactivity”. With “QVQLVESGGGLVQAGGSLRLSCAASGSIFIYYAMGWYRQAPGKERELVAGININGGSTYYADSVKGRFTISRDNAKNTVYLQMNSLKPEDTAVYYCAADELWWTYWDFVTNWYQRDYWGQGTQVTVSS” the “polyreactivity (PSR sort gate)” value was “low polyreactivity”. For “QVQLVESGGGLVQAGGSLRLSCAASGSIFIYYSMGWYRQAPGKERELVAAISWSGGDTYYADSVKGRFTISRDNAKNTVYLQMNSLKPEDTAVYYCAADSVTRPAGDYWGQGTQVTVSS”, the “polyreactivity (PSR sort gate)” value was “low polyreactivity”. For “QVQLVESGGGLVQAGGSLRLSCAASGSIFKDNAMGWYRQAPGKERELVAAITSGASTNYADSVKGRFTISRDNAKNTVYLQMNSLKPEDTAVYYCAAVLAGGVYWVVHYDYWGQGTQVTVSS”, the “polyreactivity (PSR sort gate)” value was “low polyreactivity”. In the case of “QVQLVESGGGLVQAGGSLRLSCAASGSIFKEYAMGWYRQAPGKERELVAAITGSGGSTFYADSVKGRFTISRDNAKNTVYLQMNSLIPEDTAVYYCNARRPAKSRYRHDYWGQGTQVTVSS”, the “polyreactivity (PSR sort gate)” value is reported as “high polyreactivity”. For “QVQLVESGGGLVQAGGSLRLSCAASGSIFKEYTMGWYRQAPGKERELVAAITWSDGSTDYADSVKGRFTISRDNAKNTVYLQMNSLKPEDTAVYYCAADYDYPYFWSSGYIDDYWGQGTQVTVSS”, the “polyreactivity (PSR sort gate)” value was “low polyreactivity”. In the case of “QVQLVESGGGLVQAGGSLRLSCAASGSIFKFNTMGWYRQAPGKERELVASITRVGSTYYADSVKGRFTISRDNAKNTVYLQMNSLKPEDTAVYYCAARFLYYTYKTFRTYDYWGQGTQVSVSS”, the “polyreactivity (PSR sort gate)” value is reported as “high polyreactivity”. For “QVQLVESGGGLVQAGGSLRLSCAASGSIFKFYTMGWYIQAPGKERELVATITSGGRTNYADSVKGRFTISPDNAKNTVYLQMNTLKPEDTAVYYCAATWLRVKYRFKGYDYWGQGTQVTVSS”, the “polyreactivity (PSR sort gate)” value was “high polyreactivity”. With “QVQLVESGGGLVQAGGSLRLSCAASGSIFKFYTMGWYRQAAGKEWELVATISRSGGGTFYADSVKGRFTISRDNAKNTVYLQMNSLKPEDTAVYYCAADPAFTHYPYGYGYWGQGTQVTVSS” the “polyreactivity (PSR sort gate)” value was “low polyreactivity”. In the case of “QVQLVESGGGLVQAGGSLRLSCAASGSIFKGYAMGWYRQAPGKERELVAAITIDGSTYYADSVKGRFTISRDNAKNTVYLQMNSLKPEDTAVYYCAAVYLWYGSWPLHFAAYDYWGQGTQVTVSS”, the “polyreactivity (PSR sort gate)” value is reported as “low polyreactivity”. For “QVQLVESGGGLVQAGGSLRLSCAASGSIFKGYAMGWYRQAPGKERELVAAITYSGGGTYYADSVKGRFTISRDNAKNTVYIQMNILKPEDTAVYYCNADRYYPDDLSDGVGTYDYWGQGTQVTVSS”, the “polyreactivity (PSR sort gate)” value was “low polyreactivity”. With “QVQLVESGGGLVQAGGSLRLSCAASGSIFKGYAMGWYRQAPGKERELVASITSSGASTYYADSGKGRFTISRDNAKNTVYLHMNSLKPEDTAVYYCATDHESVRVLVSSTSDYDYWGQGTQVTVSS” the “polyreactivity (PSR sort gate)” value was “low polyreactivity”. In the case of “QVQLVESGGGLVQAGGSLRLSCAASGSIFKHNDMGWYRQAPGKERELVAAISRSGGSTYYADSVKGRFTISRDNAKNTVYLQMNSLKPEDTAVYYCAKDGVGAPSTYNYWGQGTQVTVSS”, the “polyreactivity (PSR sort gate)” value is reported as “high polyreactivity”. In the case of “QVQLVESGGGLVQAGGSLRLSCAASGSIFKKYAKGWYIQAPGKERELVAAISKSGGSTYYADSVKGRFTISRDNAKTTVYLQMNSLKPEDTAVYYCAAAAGGSAYWDYDYWGQGTQVTVSS”, the “polyreactivity (PSR sort gate)” value is reported as “low polyreactivity”. With “QVQLVESGGGLVQAGGSLRLSCAASGSIFKKYAMVWYRQAPGKERELVAAITRGTYYADSVKGRFTISRDNAKNTVYLQMNSLKPEDTAVYFCNREYWGRGYYRVRGEYDYWGQGTQVTVSS” the “polyreactivity (PSR sort gate)” value was “low polyreactivity”. In the case of “QVQLVESGGGLVQAGGSLRLSCAASGSIFKPYAMGWSRQAPGKERELVAAISRSGSTYYADSVKGRFTISRDNAKNTVYLQMNSLKPEDTAVYYCAKDVRPNYYAAFNYWGQGTQVTVSS”, the “polyreactivity (PSR sort gate)” value is reported as “low polyreactivity”. In the case of “QVQLVESGGGLVQAGGSLRLSCAASGSIFKPYAMGWYRQAPGKERELVAAISRSGSTYYADSVKGRFTISRDNAKNTVYLQMNSLKPEDTAVYYCAKDVRPNYYAAFNYWGQGTQVTVSS”, the “polyreactivity (PSR sort gate)” value is reported as “low polyreactivity”. In the case of “QVQLVESGGGLVQAGGSLRLSCAASGSIFKPYAMGWYRQAPGKERELVAAITRSGGSTYYADSVKGRFTISRDKAKNTVYLQMNSLKPEDTAVYYCAAGNAPYFRYGSKKYGYWGQGTQVTVSS”, the “polyreactivity (PSR sort gate)” value is reported as “high polyreactivity”. For “QVQLVESGGGLVQAGGSLRLSCAASGSIFKPYAMGWYRQAPGKERELVARISWSTGRTYYADSVKGRFTISRDNAKNTVYLQMNSLKPEDTEVYDCDAAVAVRYGYWGQGTQVTVSS”, the “polyreactivity (PSR sort gate)” value was “high polyreactivity”. In the case of “QVQLVESGGGLVQAGGSLRLSCAASGSIFKQYAMGWYRQAPGKERELVAAITWRGTGTYYADSVKGRFTISRDNAKNTVYLQMNSLKPEDTAVYYCAAKWYRRTYGYLPYTGIVNYDYWGQGTQVTVSS”, the “polyreactivity (PSR sort gate)” value is reported as “high polyreactivity”. With “QVQLVESGGGLVQAGGSLRLSCAASGSIFKRNAMGWYRQAPGKERELVAAIRVNGGITYYADSVKGRFTISRDNAKNTVFLQMNSLKPEDTSVYYCAVYSRQGLGYWGQGTQVTVSS” the “polyreactivity (PSR sort gate)” value was “high polyreactivity”. In the case of “QVQLVESGGGLVQAGGSLRLSCAASGSIFKSNAMGWYRQAPGKERELVAAISNGGITNYADSVKGRFTISRDNAKNTVYLQMNSLKPEDTAVYYCATSDVREIWVDYWGQGTQVTVSS”, the “polyreactivity (PSR sort gate)” value is reported as “low polyreactivity”. For “QVQLVESGGGLVQAGGSLRLSCAASGSIFKTYAMGWYRQAPGKERELVAAITSGVSTNYADSVKGRFTISRDNAKNTVYLQMNSLKPEDTAVYYCNVDTSSPSRRDYDYWGQGTQVTVSS”, the “polyreactivity (PSR sort gate)” value was “low polyreactivity”. For “QVQLVESGGGLVQAGGSLRLSCAASGSIFKVYAMGWYRQAPGKEREFVAAITSSDSNTNYADSVKGRFTISRDNAKNTDYLQMNSLKPEDTAVYYCNARIYTRRYVPHYGFNYWGQGTQVTVSS”, the “polyreactivity (PSR sort gate)” value was “low polyreactivity”. In the case of “QVQLVESGGGLVQAGGSLRLSCAASGSIFKVYAMGWYRQAPGKEREFVAAITSSDSNTNYADSVKGRFTISRDNAKNTVYLQMNSLKPEDTAVYYCNARIYTRRYVPHYGFNYWGQGTQVTVSS”, the “polyreactivity (PSR sort gate)” value is reported as “low polyreactivity”. For “QVQLVESGGGLVQAGGSLRLSCAASGSIFKYNDMGWYRQAPGKERELVAAITSDSSTYYADSVKGRFTISRDNAKNTVYLQMNSLKPVDTAVYYCAADTTGFTTYAYWYDYWGQGTQVTVSS”, the “polyreactivity (PSR sort gate)” value was “low polyreactivity”. In the case of “QVQLVESGGGLVQAGGSLRLSCAASGSIFKYNTMGWYRQAPRKERELVAAINGGGSTYYADSVKGRFTISRDNAKNTVYLLMNSLKPEDTAVYYCNARQWYWESPDDYWGQGTQVTVSS”, the “polyreactivity (PSR sort gate)” value is reported as “low polyreactivity”. For “QVQLVESGGGLVQAGGSLRLSCAASGSIFKYYAMGWYRQAPGKERELVAAISRSGSNTYYADSVKGRFTISRDNPKNTVYLQMNSLKPEDTAVYYCAAVKGPERPTSPYDYWGQGTQVTVSS”, the “polyreactivity (PSR sort gate)” value was “high polyreactivity”. For “QVQLVESGGGLVQAGGSLRLSCAASGSIFKYYAMGWYRQAPGKERELVAAISSGGITNYADSVKGRFTISRDNAKNTVYLQMNSLKPEDTAVYYCAARDYVRFGLYDYDYWGQGTQVTVSS”, the “polyreactivity (PSR sort gate)” value was “low polyreactivity”. For “QVQLVESGGGLVQAGGSLRLSCAASGSIFKYYAMGWYRQATGKERELVAAISSGGSTKYADSVKGRFTITRDNAKNTVYLQMNSLKPEDTAVYYCAARDPSRHARRAYDYWGQGTQVTVSS”, the “polyreactivity (PSR sort gate)” value was “low polyreactivity”. In the case of “QVQLVESGGGLVQAGGSLRLSCAASGSIFLANAMGWYRQAPGKERELVAGISSSVTTNYADSVKGRFTISRDNAKNTVYLQMNSLKPEDTAVYYSNAVYGVYDFNYWVQGTQVTVSS”, the “polyreactivity (PSR sort gate)” value is reported as “low polyreactivity”. With “QVQLVESGGGLVQAGGSLRLSCAASGSIFLDNAMGWYRQAPGKERELVAAISKSGTRTYYADSVKGRFTISRDNAKTTVYLQMNSLKPEDTAVFYCNVVPKQAKRVELIGYYYWGQGTQVTVSS” the “polyreactivity (PSR sort gate)” value was “high polyreactivity”. With “QVQLVESGGGLVQAGGSLRLSCAASGSIFLDYAMGWYRQAPGKERELVATITSGSSTYADSVKGRFTISRDNAKNTVYLQMNSLKPEDTAVYYCNVKLIVRYWNPSPYDYWGQGTQVTVSS” the “polyreactivity (PSR sort gate)” value was “low polyreactivity”. For “QVQLVESGGGLVQAGGSLRLSCAASGSIFLEYTMGWYSQAPGKECVLVAAITSGGSTKYADSVKGRFTISRDTAKNTVYLQMNILKPEDTAVYYCNARHYSREFDYWGQGTQVTVSS”, the “polyreactivity (PSR sort gate)” value was “low polyreactivity”. In the case of “QVQLVESGGGLVQAGGSLRLSCAASGSIFLFNTMGWYRQAPGKERELVAVISRGGITYYADSVKGRFTISRDNAKNTVYLQMNSLKPEDTAVYYCAADGGYWSQYDYWGQGTQVTVSS”, the “polyreactivity (PSR sort gate)” value is reported as “low polyreactivity”. In the case of “QVQLVESGGGLVQAGGSLRLSCAASGSIFLGYAMGWYRQAPGKERELVAAITSGGSTNYADSVKGRFTISRDNAKNTVYLQMNSLKPEDTAVYYCAAKGEWSLVYTDYDYWGQGTQVTVSS”, the “polyreactivity (PSR sort gate)” value is reported as “low polyreactivity”. In the case of “QVQLVESGGGLVQAGGSLRLSCAASGSIFLGYTMGWYRQAPGKERELVAAINSSGGSTYYADSVKGRFTISRDNAKNTVYLQMNSLKAEDTAVYYCADANSILLFDSWGQGTQVTVSS”, the “polyreactivity (PSR sort gate)” value is reported as “low polyreactivity”. For “QVQLVESGGGLVQAGGSLRLSCAASGSIFLIYAMGWYRQAPGKERELVAAIDWGGGANTYYADSVKGRFTISRDNAKNTVYLQMNSLKPEDTAVYYCAVDSYTSGYEYWGQGTQVTVSS”, the “polyreactivity (PSR sort gate)” value was “low polyreactivity”. In the case of “QVQLVESGGGLVQAGGSLRLSCAASGSIFLIYAMGWYRQAPGKERELVAAISSGGSTYYADSVKGRFTISRDNAKNTVYLQMNSLKPEDTAVYYCAARYVERHTDYYYWGQGTQVTVSS”, the “polyreactivity (PSR sort gate)” value is reported as “low polyreactivity”.
